Usually Km stands for the substrate concentration at which the rate is half of its maximum. As a reminder, the kcat is the maximal rate divided by the concentration of active sites. In general, kcat/Km refers to the turnover number divided by the Michaelis constant.

This series relates to Nc1ccccc1C(=O)O. Put plainly: Michaelis-Menten chlorination assay, HPLC, Fre-coupled. Type of series: biochemical, Pseudomonas fluorescens. The settings on record: Fre in excess, 30 °C. The text has this:
Michaelis-Menten chlorination assay, HPLC, Fre-coupled on PrnA
On to PrnA (Pseudomonas fluorescens; F454K), for which the Michaelis-Menten constant (Km) turned out to be 3628 ± 1108 µM, the kcat turned out to be 0.061 ± 0.0112 s⁻¹ and the specificity constant (kcat/Km) came to 16.7 ± 6.67 M⁻¹ s⁻¹.

For “PrnA (Pseudomonas fluorescens; E450K/F454K)”, the Michaelis-Menten constant (Km) stood at 205 ± 16 µM, the catalytic constant (kcat) was determined as 0.0303 ± 0.000667 s⁻¹ and the kcat/Km came to 148 ± 11.7 M⁻¹ s⁻¹.

Regarding “PrnA (Pseudomonas fluorescens; E450K/F454R)”, the Km came to 378 ± 59 µM, the kcat came to 0.0212 ± 0.00117 s⁻¹ and the specificity constant (kcat/Km) came to 56.7 ± 10 M⁻¹ s⁻¹.

As to PrnA (Pseudomonas fluorescens; E450K), the Km stood at 384 ± 93 µM, the kcat is 0.0155 ± 0.000833 s⁻¹ and the kcat/Km was 40 ± 10 M⁻¹ s⁻¹.

These data come from paper PMC5659210, “Extending the biocatalytic scope of regiocomplementary flavin-dependent halogenase enzymes” (Chemical Science, 2015).
